± gives the uncertainty stated by the source.
Test: self-splicing fitness, log relative to wild type (ln ratio); higher = more splicing; Tetrahymena group I intron in knt gene, E. coli kanamycin selection, DiMSum; sequences stand for … in CUCUCU…GGAGGGAAAAGUUAUCAGGCAUGCACCUGGUAGCUAGUCUUUAAACCAAUAGAUUGCAUCGGUUUAAAAGGCAAGACCGUCAAAUUGCGGGAAAGGGGUCAACAGCCGUUCAGUACCAAGUCUCAGGGGAAACUUUGAGAUGGCCUUGCAAAGGGUAUGGUAAUAAGCUGACGGACAUGGUCCUAACCACGCAGCCAAGUCCUAAGUCAACAGAUCUUCUGUUGAUAUGGAUGCAGUUCACAGACUAAAUGUCGGUCGGGGAAGAUGUAUUCUUCUCAUAAGAUAUAGUCGGACCUCUCCUUAAUGGGAGCUAGCGGAUGAAGUGAUGCAACACUGGAGCCGCUGGGAACUAAUUUGUAUGCGAAAGUAUAUUGAUUAGUUUUGGAGUACUCGUGGUCG
In short: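 Library with all eight P1ex-region intron nucleotides randomised, intron inside the knt kanamycin-resistance gene on pET-22b(+), in E. coli BL21(DE3). Cells grew overnight at 37°C or 30°C on LB agar with or without 25 μg/mL kanamycin (plus 100 μg/mL carbenicillin, 50 μM IPTG, 0.2% rhamnose), in six replicate transformations. Pooled colonies were amplicon-sequenced on Illumina HiSeq 2500. DiMSum fitness is the error-weighted combination of wild-type-normalised replicate fold changes, kanamycin versus none.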

| Sequence | self-splicing fitness (ln) (30 °C) | self-splicing fitness (ln) (37 °C) |
| --- | --- | --- |
| UGGCAGCAAUAUUACGGACA | 0.0855 ± 0.098 | 0.0548 ± 0.14 |
| CUUCAGCAAUAUUACGCAGC | -2.04 ± 0.22 | -1.5 ± 0.32 |
| AAGCAGCAAUAUUACGGACU | -0.985 ± 0.078 | -0.121 ± 0.11 |
| ACGGAGCAAUAUUACGUCUG | -1.94 ± 0.19 | 0.013 ± 0.14 |
| ACCCAGCAAUAUUACGGAUA | -0.912 ± 0.08 | -0.448 ± 0.083 |
| GAUGAGCAAUAUUACGCUCU | -3.24 ± 0.36 | -2.02 ± 0.44 |
| CUUCAGCAAUAUUACGAGAC | -4.24 ± 0.34 | -3.01 ± 0.34 |
| CCCUAGCAAUAUUACGGAAC | -4.39 ± 0.43 | -2.85 ± 0.4 |
| CAUGAGCAAUAUUACGCAAA | -3.92 ± 0.38 | -1.97 ± 0.24 |
| AUAUAGCAAUAUUACGACAA | -0.546 ± 0.21 | 0.567 ± 0.18 |
| GUUGAGCAAUAUUACGUAAG | -2.08 ± 0.18 | -1.17 ± 0.19 |
| ACAUAGCAAUAUUACGAGUA | -3.54 ± 0.43 | -1.8 ± 0.23 |
| AUCAAGCAAUAUUACGGAAA | -2.58 ± 0.24 | -1.7 ± 0.21 |
| UCGAAGCAAUAUUACGUACU | -2.88 ± 0.1 | -1.67 ± 0.12 |
| GCUGAGCAAUAUUACGUCCA | -1.97 ± 0.27 | -2.32 ± 0.37 |
| AUCAAGCAAUAUUACGUGCU | -2.33 ± 0.088 | -1.7 ± 0.11 |
| UGCAAGCAAUAUUACGGAAC | – | -0.851 ± 0.25 |
| AUCAAGCAAUAUUACGGUUG | -3.05 ± 0.25 | -1.92 ± 0.19 |
| CACCAGCAAUAUUACGUUGA | -4.33 ± 0.31 | -2.1 ± 0.13 |
| AACGAGCAAUAUUACGUUGC | -4.01 ± 0.18 | -3.16 ± 0.19 |
| UACUAGCAAUAUUACGUAUC | -2.06 ± 0.2 | -2.9 ± 0.4 |
| AAGUAGCAAUAUUACGAGCG | -0.709 ± 0.14 | -1.11 ± 0.19 |
| CGUGAGCAAUAUUACGACUA | -2.94 ± 0.47 | -1.94 ± 0.36 |
| AUAUAGCAAUAUUACGAAGA | -2.16 ± 0.4 | -1.98 ± 0.47 |
| AGACAGCAAUAUUACGGUUU | -3.25 ± 0.11 | -1.32 ± 0.082 |

| Sequence | self-splicing fitness (ln) (30 °C) | self-splicing fitness (ln) (37 °C) |
| --- | --- | --- |
| GUAGAGCAAUAUUACGGGCA | -1.69 ± 0.15 | -0.35 ± 0.21 |
| AAAUAGCAAUAUUACGAACG | -1.42 ± 0.14 | -0.384 ± 0.16 |
| CGAGAGCAAUAUUACGUUUA | -3.35 ± 0.36 | -3.25 ± 0.47 |
| UUUAAGCAAUAUUACGUGAA | -0.503 ± 0.093 | -0.616 ± 0.095 |
| CUUAAGCAAUAUUACGAGGU | -1.3 ± 0.14 | -3.09 ± 0.26 |
| AGAAAGCAAUAUUACGAGGC | -3.15 ± 0.42 | -2.66 ± 0.41 |
| UCUCAGCAAUAUUACGACGU | -0.386 ± 0.07 | -0.541 ± 0.08 |
| GGACAGCAAUAUUACGGAUG | -3.44 ± 0.16 | -0.131 ± 0.11 |
| AGGGAGCAAUAUUACGUUUA | -2.68 ± 0.33 | -2.33 ± 0.31 |
| GGGAAGCAAUAUUACGGCUA | -0.707 ± 0.089 | 0.0151 ± 0.12 |
| UAUGAGCAAUAUUACGGGUA | -1.86 ± 0.14 | -2.05 ± 0.14 |
| CGCGAGCAAUAUUACGGUAC | -3.55 ± 0.22 | -3.97 ± 0.42 |
| GGCUAGCAAUAUUACGUGGC | -2.66 ± 0.28 | -1.23 ± 0.28 |
| UUGAAGCAAUAUUACGUUAU | -2.08 ± 0.099 | -0.402 ± 0.1 |
| GUUAAGCAAUAUUACGAUCA | -0.949 ± 0.23 | -0.245 ± 0.2 |
| UCCCAGCAAUAUUACGCUAG | -3.45 ± 0.18 | -2.9 ± 0.34 |
| CGGCAGCAAUAUUACGUUAA | -2.44 ± 0.16 | -1.1 ± 0.11 |
| UCAAAGCAAUAUUACGAUGC | -2.78 ± 0.15 | -0.924 ± 0.15 |
| UCUCAGCAAUAUUACGACGA | -0.256 ± 0.12 | -0.879 ± 0.13 |
| AUAAAGCAAUAUUACGCGGU | -1.8 ± 0.12 | -0.6 ± 0.11 |
| GAUCAGCAAUAUUACGCACA | -0.0131 ± 0.12 | 0.404 ± 0.13 |
| CCUUAGCAAUAUUACGGCGC | -2.98 ± 0.27 | – |
| GGACAGCAAUAUUACGACUC | -0.16 ± 0.078 | 0.231 ± 0.097 |
| UGCUAGCAAUAUUACGCACU | -2.3 ± 0.11 | -1.11 ± 0.11 |
| CUGCAGCAAUAUUACGCUUC | – | -1.03 ± 0.21 |

| Sequence | self-splicing fitness (ln) (30 °C) | self-splicing fitness (ln) (37 °C) |
| --- | --- | --- |
| UCGCAGCAAUAUUACGGCUA | 0.198 ± 0.091 | 0.317 ± 0.098 |
| AAUCAGCAAUAUUACGCGUC | -1.14 ± 0.071 | 0.513 ± 0.088 |
| GGAAAGCAAUAUUACGUGUG | -2.41 ± 0.087 | -0.505 ± 0.078 |
| ACCGAGCAAUAUUACGCCGU | -3.49 ± 0.3 | -1.75 ± 0.2 |
| UUGCAGCAAUAUUACGCCUG | -2.63 ± 0.15 | -1.6 ± 0.19 |
| CCGCAGCAAUAUUACGGCAA | -2.74 ± 0.24 | -2.53 ± 0.22 |
| UCCGAGCAAUAUUACGAUCA | – | -1.26 ± 0.25 |
| AACUAGCAAUAUUACGCUGU | -3.41 ± 0.16 | -3.84 ± 0.32 |
| GACGAGCAAUAUUACGAACU | -1.83 ± 0.11 | -0.278 ± 0.11 |
| UGCAAGCAAUAUUACGACUG | 0.127 ± 0.065 | 0.37 ± 0.087 |
| CUGGAGCAAUAUUACGGAGA | -3.11 ± 0.42 | – |
| UGUAAGCAAUAUUACGGCAU | -1.48 ± 0.12 | -0.402 ± 0.11 |
| GUCGAGCAAUAUUACGUUCC | -1.99 ± 0.24 | -0.593 ± 0.37 |
| ACACAGCAAUAUUACGAUGC | -1.92 ± 0.073 | -0.965 ± 0.094 |
| AGUAAGCAAUAUUACGAAGA | -2.88 ± 0.28 | -2.82 ± 0.35 |
| CCGAAGCAAUAUUACGCCAG | -1.32 ± 0.11 | -0.531 ± 0.13 |
| CUAUAGCAAUAUUACGCUGG | -3.36 ± 0.37 | -2.05 ± 0.32 |
| GAUGAGCAAUAUUACGGUCA | -3.49 ± 0.47 | -0.516 ± 0.19 |
| AGGUAGCAAUAUUACGGACA | -0.694 ± 0.017 | -0.397 ± 0.034 |
| GGCGAGCAAUAUUACGGAGC | – | -2.17 ± 0.37 |
| GUCAAGCAAUAUUACGAACU | -2.42 ± 0.11 | -1.38 ± 0.12 |
| UCCUAGCAAUAUUACGAGUA | -1.12 ± 0.14 | -0.911 ± 0.13 |
| GAUGAGCAAUAUUACGCCGA | – | -1.44 ± 0.45 |
| GCUAAGCAAUAUUACGAAGG | -1.85 ± 0.11 | -0.743 ± 0.16 |
| UUAAAGCAAUAUUACGUUUU | -3.84 ± 0.2 | -2.27 ± 0.18 |

| Sequence | self-splicing fitness (ln) (30 °C) | self-splicing fitness (ln) (37 °C) |
| --- | --- | --- |
| UUGAAGCAAUAUUACGUGUG | -0.963 ± 0.056 | -0.69 ± 0.072 |
| CAUCAGCAAUAUUACGUUUG | -1.57 ± 0.064 | -0.71 ± 0.089 |
| AACUAGCAAUAUUACGCAAA | -2.38 ± 0.13 | -1.72 ± 0.1 |
| GCACAGCAAUAUUACGUCGG | -1.72 ± 0.1 | -1.09 ± 0.13 |
| GAGGAGCAAUAUUACGUAGA | -4 ± 0.24 | -2.22 ± 0.19 |
| UAAAAGCAAUAUUACGUACC | -2.18 ± 0.25 | -0.361 ± 0.21 |
| AUUUAGCAAUAUUACGGCGU | -0.211 ± 0.11 | 0.269 ± 0.13 |
| UAACAGCAAUAUUACGAGAA | -2.22 ± 0.22 | -2.07 ± 0.23 |
| AUGCAGCAAUAUUACGAAGA | -1.8 ± 0.18 | -2.36 ± 0.27 |
| GCCGAGCAAUAUUACGACCU | -2.33 ± 0.3 | -1.54 ± 0.36 |
| UGUUAGCAAUAUUACGCCAG | -1.36 ± 0.23 | -1.76 ± 0.35 |
| CCUAAGCAAUAUUACGAUGC | -3.49 ± 0.17 | -1.88 ± 0.16 |
| UGCCAGCAAUAUUACGACGU | -1.75 ± 0.14 | -1.26 ± 0.14 |
| UCGCAGCAAUAUUACGUGCC | -2.66 ± 0.21 | -2.7 ± 0.36 |
| AGUUAGCAAUAUUACGGUCU | -0.221 ± 0.081 | -0.0741 ± 0.087 |
| AAAAAGCAAUAUUACGGACU | -0.0499 ± 0.067 | -0.0238 ± 0.083 |
| ACCAAGCAAUAUUACGCUAU | -1.66 ± 0.087 | -0.775 ± 0.098 |
| CAAGAGCAAUAUUACGCUGU | -3.93 ± 0.36 | -2.34 ± 0.24 |
| UAGCAGCAAUAUUACGAACU | -0.336 ± 0.18 | 0.618 ± 0.14 |
| GUUAAGCAAUAUUACGCCUU | -0.286 ± 0.071 | 0.261 ± 0.096 |
| CCUGAGCAAUAUUACGCGGA | -2.9 ± 0.25 | -1.17 ± 0.18 |
| AAAGAGCAAUAUUACGCAGC | – | -2.77 ± 0.41 |

— the supplement of paper PMC7877785
